In PMC4232046 (2014):

Target: Aspergillus fumigatus core CCAAT-binding complex (HapB(230–299), HapC(40–137), HapE(47–164)) (Aspergillus fumigatus)
Experiment: SPR

B1: Aspergillus fumigatus HapX(24–158) (domain or fragment)
chain: SPSPGPGTPGSITSKEWVIPPRPKPGRKPATDTPPTKRKAQNRAAQRAFRERRAARVNELEEQIKKIEDEHEIHIAAFKEQITNLSREVEQCRSEMTWWRDRCHALEKEVSVERSAKEAIVKEFRSSLSDREAVR
Kd: 35 nM
